The chains are these.
B1: TCR R36P3F9 (TCR, V domains shown)
V domain 1: SQQGEEDPQALSIQEGENATMNCSYKTSINNLQWYRQNSGRGLVHLILIRSNEREKHSGRLRVTLDTSKKSSSLLITASRAADTASYFCATVSNYQLIWGAGTKLIIKP
V domain 2: EAQVTQNPRYLITVTGKKLTVTCSQNMNHEYMSWYRQDPGLGLRQIYYSMNVEVTDKGDVPEGYKVSRKEKRNFPLILESPSPNQTSLYFCASSSTSGGLSGETQYFGPGTRLLVLE
B2: TCR R52P2G11 (TCR, V domains shown)
V domain 1: RGNGKNQVEQSPQSLIILEGKNCTLQCNYTVSPFSNLRWYKQDTGRGPVSLTIMTFSENTKSNGRYTATLDADTKQSSLHITASQLSDSASYICVVSAYGKLQFGAGTQVVVTP
V domain 2: DAGVIQSPRHEVTEMGQEVTLRCKPISGHNSLFWYRQTMMRGLELLIYFNNNVPIDDSGMPEDRFSAKMPNASFSTLKIQPSEPRDSAVYFCASSLGSPDGNQPQHFGDGTRLSILE
B3: TCR R53P2A9 (TCR, V domains shown)
V domain 1: QTVTQSQPEMSVQEAETVTLSCTYDTSESDYYLFWYKQPPSRQMILVIRQEAYKQQNATENRFSVNFQKAAKSFSLKISDSQLGDAAMYFCAYNSYAGGTSYGKLTFGQGTILTVHP
V domain 2: DAGVTQSPTHLIKTRGQQVTLRCSPISGHKSVSWYQQVLGQGPQFIFQYYEKEERGRGNFPDRFSARQFPNYSSELNVNALLLGDSALYLCASSLDGTSEQYFGPGTRLTVTE

The target of this assay is HLA-A*02-presented DCAF4L2-001 on target cells (human). Briefly: cell-based or functional assay.
Turning to B1, the “EC50 of target peptide titration (IFNγ release)” value (shortened to “EC50 of target peptide titration”) is roughly 3.6 nM.

For B2, the “EC50 of target peptide titration” value is roughly 8.5 nM.

As to B3, the “EC50 of target peptide titration” value is roughly 11.8 nM.

The values are drawn from patent US20180306789A1 (IMMATICS BIOTECHNOLOGIES, published 2018).
